Results published in publication PMC4222909, “The Porphyromonas gingivalis Ferric Uptake Regulator Orthologue Binds Hemin and Regulates Hemin-Responsive Biofilm Development” (PLoS ONE, 2014).

How the values were obtained:
[1] = molecular target: T1, Zn(II)Har150 (Porphyromonas gingivalis ATCC 33277) (UniProt B2RKX7); assay: competition
T1 sequence: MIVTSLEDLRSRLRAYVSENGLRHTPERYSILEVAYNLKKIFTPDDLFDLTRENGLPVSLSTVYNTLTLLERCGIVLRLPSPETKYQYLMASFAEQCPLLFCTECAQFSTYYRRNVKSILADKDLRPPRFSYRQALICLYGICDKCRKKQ

[2] = molecular target: T1, Zn(II)Har150 (Porphyromonas gingivalis ATCC 33277); assay: EMSA
SEC = molecular target: the molecule itself; assay: SEC

## GGTGTTGATAACTCGGTCGCGCCTTGGTCGGCTTTCGTATAAGTGTCTGGAATGCAGTGGAATAGCGTTGTTTCCTTCGCTGTTTATATCTCAAGGTTATAACCATCTGAAAACAATATAGATACGATTCATCTGAATTATACTACACTTTTTGTCGATTGTTTTTTTACTCTTTTGTTTGAACCTTTGCTATCCCCAAAGGAGCAATGAACGACTGCTCTCAAAACGATATTTTTTTAG (double strand) [dnaA (PGN_0001) promoter 240 bp]
[1]
  binding: binds
[2]
  binding: binds

## GGTGTTGATAACTCGGTCGCGCCTTGGTCGGCTTTCGTATAAGTGTCTGGAATGCAGTGGAATAGCGTTGTTTCCTTCGCTGTTTATATCTCAAGGTTATAACCATCTGAAAACAATATAGATACGATTCATCTGAATTATACTACACTTTTTGTCGATTGTTTTTTTACTCTTTTGTTTGAACCTTTGCTATCCCCAAAGGAGCAATGAACGACTGCTCTCAAAACGATATTTTTTTAG (double strand) [FAM-dnaA (PGN_0001) promoter]
[2]
  binding: binds

B1: Zn(II)Har150, recombinant P. gingivalis Har truncated by 16 amino acids at the C-terminus (domain or fragment)
chain: MIVTSLEDLRSRLRAYVSENGLRHTPERYSILEVAYNLKKIFTPDDLFDLTRENGLPVSLSTVYNTLTLLERCGIVLRLPSPETKYQYLMASFAEQCPLLFCTECAQFSTYYRRNVKSILADKDLRPPRFSYRQALICLYGICDKCRKKQ
notes: source: E. coli BL21(DE3), purified (GSTrap, on-column Factor Xa cleavage, cation exchange, size exclusion); not shown: GST, N-terminal, cleaved
SEC
  stoichiometry N: 2

B2: Zn(II)Har, recombinant Porphyromonas gingivalis Har (heme associated regulator, Fur orthologue PGN_1503) (natural protein, Porphyromonas gingivalis ATCC 33277, UniProt B2RKX7 1-166, looked up)
chain: MIVTSLEDLRSRLRAYVSENGLRHTPERYSILEVAYNLKKIFTPDDLFDLTRENGLPVSLSTVYNTLTLLERCGIVLRLPSPETKYQYLMASFAEQCPLLFCTECAQFSTYYRRNVKSILADKDLRPPRFSYRQALICLYGICDKCRKKQSALKKAADKAAPKKKK
notes: Har (Fur family transcriptional regulator), P. gingivalis ATCC 33277, gene PGN_1503 (501 bp), full length; Factor Xa site (IEGR) immediately before the start of har; Measured mass of apo-Har 19157.46 Da fits the theoretical 19157.20 Da; also called PgHar; rHar; source: E. coli BL21(DE3), purified (GSTrap, on-column Factor Xa cleavage, cation exchange, size exclusion); not shown: GST, N-terminal, …
SEC
  stoichiometry N: 2

B3: Zn(II)C97A, recombinant P. gingivalis Har with Cys97 substituted with Ala (natural protein)
chain: MIVTSLEDLRSRLRAYVSENGLRHTPERYSILEVAYNLKKIFTPDDLFDLTRENGLPVSLSTVYNTLTLLERCGIVLRLPSPETKYQYLMASFAEQAPLLFCTECAQFSTYYRRNVKSILADKDLRPPRFSYRQALICLYGICDKCRKKQSALKKAADKAAPKKKK
notes: also called HarC97A; source: E. coli BL21(DE3), purified (GSTrap, on-column Factor Xa cleavage, cation exchange, size exclusion); not shown: GST, N-terminal, cleaved
SEC
  stoichiometry N: 2
